Tests used:
[1] = toxicological assessment of peptide-PMO in C57BL/6 mice (urinary KIM-1, NGAL; serum BUN); assay type: in vivo, mouse; conditions: 7 days after single dose of 30 mg/kg, FIG. 7
Protocol: Female C57BL/6 mice aged 8-10 weeks were administered a single 30 mg/kg dose of peptide-PMO in 0.9% saline by bolus intravenous tail vein injection. Urine was non-invasively collected under chilled conditions at Day 2 and Day 7 post-administration following 20 hours housing in metabolic cages (Tecniplast, UK). Serum was collected from jugular vein at Day 7 at necropsy, as was tibialis anterior, diaphragm and heart tissue.
The same procedure was followed at different single dosage amounts ranging from 2.5 mg/kg up to 50 mg/kg of peptide-PMO in 0.9% saline by intravenous tail vein injection.
Urinary levels of KIM-1 (Kidney injury molecule-1) and NGAL (Neutrophil Gelatinase-Associated Lipocalin) were quantified by ELISA (KIM-1 R&D cat #MKM100, NGAL R&D cat #MLCN20) following appropriate dilution of urine to fit standard curves. Values were normalised to urinary creatinine levels that were quantified at MRC Harwell Institute, Mary Lyon Centre, Oxfordshire, UK. Serum blood urea nitrogen levels were quantified at MRC Harwell Institute, Mary Lyon Centre, Oxfordshire, UK.
All levels were quanitifed on an AU680 Clinical Chemistry Analyser, Beckman Coulter.

exon 51 = conditions: in vivo; cited from earlier work

Substance	Serum blood urea nitrogen levels [1]	levels of dystrophin restoration (exon 51)
Ac-RXRRBRR-FQILY-RBRXR-B [Pip9b2]	elevated	
eteplirsen		approximately 1 % of normal dystrophin levels

— US12268749B2, “Cell-penetrating peptides” (Oxford University Innovation Limited, priority 2018, dated 2025)
